Measured values: PMC11589570 (Nature Communications, 2024)
No end group written: not given here.

Key:
Conditions in all cases: both partners purified
[1] = biological target: LC3A_(1-120) (human, UniProt Q9H492 1-120); test: fluorescence polarisation; direct titration: 30 nM Cy5-labelled p62 LIR probe, purified LC3/GABARAPs titrated from 55 µM to 600 pM; 50 mM HEPES pH 7.5, 150 mM NaCl, 5 % glycerol, 1 mM TCEP, 0.05% TWEEN20; 1 h at room temperature; 384-well plate
[2] = biological target: GABARAPL1_(1-117) (human, UniProt Q9H0R8 1-117); test: fluorescence polarisation; tracer displacement: 30 nM Cy5-labelled p62 LIR probe with 4 µM LC3/GABARAPs, small-molecule compounds titrated from 20 µM to 20 nM; same assay buffer; 1 h at room temperature
[3] = biological target: GABARAPL2_(1-117) (human, UniProt P60520 1-117); test: as above
[4] = biological target: GABARAP_(1-116) (human, UniProt O95166 1-116); test: as above
[5] = biological target: LC3B_(1-120) (human, UniProt Q9GZQ8 1-120); test: as above
[6] = biological target: LC3C_(1-126) (human, UniProt Q9BXW4 1-126); test: as above

Measured: binding result

B1: fluorescently labeled p62 LIR probe (SDNSSGGDDDWTHLSSK-Cy5) (peptide)
peptide: SDNSSGGDDDWTHLSSK-Cy5
notes: also called p62 LIR peptide linked to a Cy5 fluorophore; tracer
binds: all assays above
